Earlier results as cited in publication PMC5672955.

Molecular target: RNA polymerase (Escherichia coli) (UniProt P0A7Z4)

Sequence of UvrD (P03018 whole entry): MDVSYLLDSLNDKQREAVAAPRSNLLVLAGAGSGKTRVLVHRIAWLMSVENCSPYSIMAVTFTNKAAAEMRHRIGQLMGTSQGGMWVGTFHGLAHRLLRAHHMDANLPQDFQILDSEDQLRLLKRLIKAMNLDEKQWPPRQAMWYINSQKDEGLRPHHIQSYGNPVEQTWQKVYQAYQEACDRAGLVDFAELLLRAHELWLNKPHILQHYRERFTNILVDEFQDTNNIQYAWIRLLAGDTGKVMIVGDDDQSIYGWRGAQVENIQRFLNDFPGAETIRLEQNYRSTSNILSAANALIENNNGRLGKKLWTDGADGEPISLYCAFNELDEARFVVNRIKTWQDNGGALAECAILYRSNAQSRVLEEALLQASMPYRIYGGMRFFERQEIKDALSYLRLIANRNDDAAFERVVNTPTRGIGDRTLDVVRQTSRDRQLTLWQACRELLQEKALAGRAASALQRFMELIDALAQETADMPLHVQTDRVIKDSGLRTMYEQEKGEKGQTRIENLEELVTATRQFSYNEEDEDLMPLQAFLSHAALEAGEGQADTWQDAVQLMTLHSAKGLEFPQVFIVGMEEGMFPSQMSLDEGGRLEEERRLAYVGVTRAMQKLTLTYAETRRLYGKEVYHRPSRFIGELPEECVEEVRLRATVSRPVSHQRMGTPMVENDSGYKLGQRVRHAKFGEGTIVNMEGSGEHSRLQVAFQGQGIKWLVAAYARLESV

Kd: 35 nM
Substance: UvrD (from UniProt P03018)
